Patent publication US20190367612A1 (Daiichi Sankyo, published 2019)

T1: human GPRC5D amino-terminal peptide MYKDCIESTGDYFLLCDAEGPWGIILE-K(Biotin)-NH2, having an intramolecular … (human, C-terminal lysine carrying biotin, C-terminal amide; intramolecularly formed disulfide bond)
T1 construct: Peptide Institute synthetic peptide; also called amino-terminal peptide of biotinylated human GPRC5D (disulfide bond present)
T1 peptide: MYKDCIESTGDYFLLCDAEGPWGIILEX

T2: amino-terminal peptide of cynomolgus monkey GPRC5D …(Biotin)-NH2 (cynomolgus monkey, C-terminal lysine carrying biotin, C-terminal amide)
T2 construct: also called amino-terminal peptide of biotinylated cynomolgus monkey GPRC5D
T2 peptide: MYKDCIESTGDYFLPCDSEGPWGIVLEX

T3: mouse GPRC5D (mouse, UniProt Q9JIL6 1-344)
T3 construct: whole, on cells
T3 sequence (looked up): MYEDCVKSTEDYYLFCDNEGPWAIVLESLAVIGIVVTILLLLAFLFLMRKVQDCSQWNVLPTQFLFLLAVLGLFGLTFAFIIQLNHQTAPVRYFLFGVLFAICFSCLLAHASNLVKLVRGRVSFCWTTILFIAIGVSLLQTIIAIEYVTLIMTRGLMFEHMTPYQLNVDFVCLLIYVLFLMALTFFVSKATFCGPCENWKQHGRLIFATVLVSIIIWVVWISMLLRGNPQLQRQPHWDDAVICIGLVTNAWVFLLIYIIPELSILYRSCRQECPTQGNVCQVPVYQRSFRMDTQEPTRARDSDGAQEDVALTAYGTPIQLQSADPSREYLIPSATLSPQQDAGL


Columns and labels:
[1] = biological target: T1, human GPRC5D amino-terminal peptide …; test: ELISA, chemiluminescence: biotinylated amino-terminal peptide of human GPRC5D on NeutrAvidin, culture supernatant of IgG-expressing cells (one concentration, not given), HRP anti-human Fab detection
Procedure: (§1) NeutrAvidin diluted to 1 μg/mL with PBS was added in an amount of 50 μL/well to 96-well Maxi-sorp plate, and the plate was left standing overnight at 4° C. for immobilization. After washing three times with an ELISA buffer, the amino-terminal peptide of the biotinylated human or cynomolgus monkey GPRC5D (used in Example 10)-1) diluted to 1 μg/mL with PBS was added thereto, and the plate was shaken at room temperature for 1 hour. After washing three times with an ELISA buffer, the plate was blocked with Blocker Casein and washed three times with an ELISA buffer. Then, the culture solution of the IgG-expressing FreeStyle 293F cells was added to the plate and reacted at room temperature for 2 hours. After washing three times with an ELISA buffer, a horseradish peroxidase (HRP)-labeled anti-human Fab antibody (Jackson ImmunoResearch Laboratories, Inc.) diluted 2500-fold with ELISA buffer was added thereto in an amount of 50 μL/well and reacted at room temperature for 1 hour. After washing five times with an ELISA buffer, SuperSignal Pico ELISA Chemiluminescent substrate was added. After 10 minutes, the chemiluminescence was measured using a plate reader.

human GPRC5D = biological target: T4, human GPRC5D (human, UniProt Q9NZD1 1-345); test: flow cytometry on KHM-1B cells (human GPRC5D), PE anti-human IgG Fc detection, rMFI = MFI minus isotype control
T4 construct: whole, on cells; also called hGPRC5D; G-protein coupled receptor family C group 5 member D
Procedure: Human multiple myeloma cell line KHM-1B cells expressing GPRC5D were adjusted to a concentration of 2×10⁶ cells/mL with PBS containing 5% FBS, inoculated in an amount of 100 μL/well to a 96-well U-bottomed microplate, and centrifuged to remove the supernatant. The culture supernatant of each human anti-GPRC5D antibody (full-length IgG form containing C2037, C3048, C3015, or C3022) obtained in Example 10)-5 or Human IgG isotype control antibody (Calbiochem/Merck Millipore Corp.) adjusted to 14 ng/mL to 30 μg/mL was added thereto in an amount of 100 μL/well, and the plate was left standing at 4° C. for 1 hour. The cells were washed twice with PBS containing 5% FBS. Then, R-Phycoerythrin AffiniPure F(ab′)2 Fragment Goat Anti-Human IgG, Fcγ Fragment Specific (Jackson ImmunoResearch Laboratories, Inc.) diluted 100-fold with PBS containing 5% FBS was added thereto in an amount of 100 μL/well, and the plate was left standing at 4° C. for 1 hour. The cells were washed twice with PBS containing 5% FBS and then resuspended in PBS containing 5% FBS, followed by detection using a flow cytometer (FACSCanto™ II; Becton, Dickinson and Company). The data was analyzed using Flowjo (Tree Star, Inc.). The PE fluorescence intensity of the cell fraction was plotted to a histogram, and the mean fluorescence intensity (MFI) was calculated. The MFI value of the control antibody was subtracted from the MFI value of the GPRC5D antibody to calculate a relative value of MFI (rMFI).

[2] = biological target: T2, amino-terminal peptide of cynomolgus …; test: ELISA, chemiluminescence: biotinylated amino-terminal peptide of cynomolgus monkey GPRC5D on NeutrAvidin, culture supernatant of IgG-expressing cells (one concentration, not given), HRP anti-human Fab detection
Procedure: as §1

mouse GPRC5D = biological target: T3, mouse GPRC5D; test: flow cytometry, in the same way as in Example 5)-2

Row | Binder | binding result [1] | EC50 (read off the curve) (human GPRC5D) [nM] | binding result [2] | binding result (mouse GPRC5D) | binding result (human GPRC5D)
1 | IgG form of the human antibody C3048 (antibody, V domains shown, Human IgG1; also called C3048 IgG form; full-length IgG form containing C3048) VH: QVQLVQSGAEVKKPGSSVKVSCKASGGTFSRYAISWVRQAPGQGLEWMGGIIPIFGTANYAQKFQGRVTITADQSTRTAYMDLGRLRSEDTAVYYCALEGFRDSLKRNPFDIWGQGTMVTVSS VL: QSVVTQPPSVSAAPGQKVTISCSGGTTNIGSNYVSWYQQLPGTAPKFLMYENNKRPSGIPDRFSGSKSGTSATLAITGLQTGDEATYYCSTWDSSLNTGLFGGGTKLTVLG | binds | 7 to 8 | binds | – | –
2 | IgG form of the human antibody C2037 (antibody, V domains shown, Human IgG1; also called C2037 IgG form; full-length IgG form containing C2037) VH: not shown VL: QPVLTQPPSASGTPGQRVTISCSGSNSNIGSRTVNWYQHLPGTAPRLLIYGNNQWPSGVPDRFSGSKSGSSASLAISGLRSEDEADYYCAAWDDSLSGVVFGGGTKLTVLG | binds | ~8 | binds | – | –

More lines, now with the values ahead:

Row | binding result [1] | EC50 (read off the curve) (human GPRC5D) [nM] | binding result [2] | binding result (mouse GPRC5D) | binding result (human GPRC5D) | Binder
3 | – | – | – | no binding | – | human chimeric 2A4 (antibody, human IgG1, V domains shown, Human IgG1 / kappa constant regions) VH: QVQLQQSGAELAKPGTSVKLSCKASGYTFTSYYIYWVKQRPGQGLEWIGYVYPGYGGTYYSDKFKGKATFTADTSSSTAYMLLGSLTPEDSAYYFCARRKGIIRGPGYFDYWGQGVMVTVSS VL: DIQMTQSPASLSASLGETVSIECLASEGISNSLAWYQQKPGKSPQLLIYGASSLQDGVPSRFSGSGSGTQYSLKISGMQPEDEGLYYCQQGYKYPPTFGGGTKLELKR
4 | binds | – | binds | – | binds | IgG form of the human antibody C3022 (antibody, V domains shown, Human IgG1; also called C3022 IgG form; full-length IgG form containing C3022) VH: QVQLVQSGAEVKKPGASVKVSCKASGYTFTGYYMHWVRQAPGQGLEWMGRINPNSGGTNYAQKFQGRVTMTRDTSISTAYMELSGLRSDDTAVYYCASGSVRHPWGQGTLVTVSS VL: QPVLTQPPSASGTPGQRVTISCSGSRSNIGGNIVSWYQQFPGTAPRLLTYADNQRPSGVPDRFSGSKSGTSASLAISGLQSEDEADYYCAAWDDSLNGVVFGGGTKLTVLG
5 | – | – | – | no binding | – | human chimeric 7B4 (antibody, human IgG1, V domains shown, Human IgG1 / kappa constant regions) VH: EIHLQESGPGLVKPSQSLSLTCSVTGYTITSGYDWSWIRKFPGNKMEWMAYMSYRGSTNYNPSLKSRISITRDTSKNQFFLQLNSVTTEDTATYYCALTRTYWYNYYYVLDAWGQGASVTVSS VL: DIQMTQSPSFLSASVGERVTLSCKASQNINKYLDWYQQKLGEPPKLLIYNTNNLHTGIPSRFSGSGSGTDYTLTISGLQPEDVATYFCLQRNSWYTFGAGTKLELKR
